The record followed here is PMC2806608.

pKd: −log10 of the molar value.

The term pKd denotes the Kd on a negative log10 scale, so that one unit is a factor of ten. A higher pKd goes with a small Kd.

The assay addresses human FcμR on BW5147 T cell transductants (human) (UniProt O60667). The assay is described as follows: radioligand binding.
Chain of UniProt O60667 (O60667 17-390): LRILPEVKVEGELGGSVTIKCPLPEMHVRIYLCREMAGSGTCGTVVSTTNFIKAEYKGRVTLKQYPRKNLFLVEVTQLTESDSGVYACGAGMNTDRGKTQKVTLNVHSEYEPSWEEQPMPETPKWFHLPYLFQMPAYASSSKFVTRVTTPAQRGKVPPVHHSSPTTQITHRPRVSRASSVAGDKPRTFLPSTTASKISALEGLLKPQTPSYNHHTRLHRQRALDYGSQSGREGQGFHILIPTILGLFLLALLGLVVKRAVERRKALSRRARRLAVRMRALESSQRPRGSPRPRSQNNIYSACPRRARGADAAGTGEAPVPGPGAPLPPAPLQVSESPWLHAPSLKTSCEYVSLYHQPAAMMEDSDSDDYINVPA

As to “^125I-labeled human IgM myeloma protein (antibody)”, the pKd is 7.97.
